Patent publication US20240100174A1, “PROTEIN-PEG INTERACTIONS THAT REDIRECT THE THERMAL UNFOLDING PATHWAY OF PEGYLATED HUMAN GALECTIN-3C” (UNIVERSITY OF FLORIDA RESEARCH FOUNDATION, INCORPORATED, priority 2022, published 2024)
Numbering of substitutions follows the chain as printed. In names and notes the source's numbering stands.

B1: Gal3C[T243C, K139I, K196I]: Gal3C[T243C] variant with lysines K139 and K196 replaced by isoleucines (protein)
chain: MADNFSLHDALSGSGNPNPQGWPGAWGNQPAGAGGYPGASYPGAYPGQAPPGAYPGQAPPGAYPGAPGAYPGAPAPGVYPGPPSGPGAYPSSGQPSATGAYPATGPYGAPAGPLIVPYNLPLPGGVVPRMLITILGTVIPNANRIALDFQRGNDVAFHFNPRFNENNRRVIVCNTKLDNNWGREERQSVFPFESGIPFKIQVLVEPDHFKVAVNDAHLLQYNHRVKKLNEISKLGISGDIDLCSASYTMI
B2: Gal3C[T243C,K139I,K196I,K199I]: Gal3C[T243C] variant with lysines K139, K196 and K199 replaced by isoleucines (protein)
chain: B1 chain with K199I
B3: Gal3C: carbohydrate recognition domain of human galectin-3, residues A111 to E252; SEQ ID NO: 13 (protein)
chain: MAGPLIVPYNLPLPGGVVPRMLITILGTVKPNANRIALDFQRGNDVAFHFNPRFNENNRRVIVCNTKLDNNWGREERQSVFPFESGKPFKIQVLVEPDHFKVAVNDAHLLQYNHRVKKLNEISKLGISGDIDLTSASYTMILEHHHHHH

What was measured:
[1] = Variable temperature circular dichroism (CD) thermal unfolding; format: physicochemical; conditions: for Tm1 ± StDev: normalized CD at 220 nm vs. temperature, 3 replicates averaged, ramp 30-90° C. at 1° C. per minute; for thermal unfolding behaviour / formation of unfolding intermediate: result in words, for polymer conjugates the selected SEC fractions; for Tm2 ± StDev: second unfolding transition, cells printed as ND with footnote b
Experimental: CD spectroscopic data were recorded with an Applied Photophysics™ Chirascan spectrophotometer equipped with a Quantum Northwestern Peltier temperature control device and operating with Chirascan v4.7.0 and Pro-Data™ Viewer software. Samples were prepared in PBS at final concentrations of 10 μM. All samples were contained in 2 mm tapered quartz cuvettes, and a temperature probe was inserted through the cuvette cap to monitor the sample temperature in real time. The following parameters were used for constant temperature experiments: CD signal measured in millidegrees, bandwidth of 1.0 nm, wavelength scan from 200-280 nm, step size of 2.0 nm. Spectra were background subtracted against the sample buffer. For thermal unfolding experiments, a linear thermal ramp was applied from 30° C. to 90° C. at 1° C. per minute. All spectra were measured in triplicate, and data were normalized to account for slight differences in protein concentration.
To calculate melting temperatures of unconjugated Gal3C, Gal3C[T243C], and Gal3C[T243C] variants containing lysine replacements, the normalized data were fit to a Boltzmann sigmoidal function in Origin v8.5. For the data fitting, no parameters were fixed, and the ‘x’ parameter defined as the center of the data was interpreted as the melting temperature (Tm). Variable temperature CD data of PEGylated Gal3C[T243C] and Gal3C[T243C] variants were fit with a sum of two Boltzmann sigmoidal functions, as shown below:
where ‘A1’, ‘A2’, and ‘A3’ represent three plateaus of the CD signal, ‘dx1’ and ‘dx2’ are the change in x between the plateaus for each melting transition, and ‘x1’ and ‘x2’ are the two Tm values extracted by the fit for the first and second unfolding transitions, respectively. Because the third plateau, A3, occurred at temperatures higher than the experimentally accessible range, this value was estimated. A single wavelength for plotting on the y-axis was selected by calculating the wavelength of greatest CD signal change for each PEGylated construct.
To record a CD spectrum of Gal3C[T243C] with free PEG, a stock solution of methoxy-PEG (mPEG) in 1×PBS was added immediately before the experiment to a solution containing protein (20 μM, 1 ×PBS) to a final concentration of 22 μM mPEG. All thermal melt parameters were the same as listed in the above described experiments.
CD spectroscopic data were recorded with an Applied Photophysics Chirascan spectrophotometer equipped with a Quantum Northwestern Peltier temperature control device and operating with Chirascan v4.7.0 and Pro-Data Viewer software, following procedures used in our previous study.^4 Spectra were background subtracted against the sample buffer. For thermal unfolding experiments, a linear thermal ramp was applied from 30° C. to 90° C. at 1° C. per minute with samples concentrated to 10 μM in PBS. All spectra were measured in triplicate, and data were normalized to account for slight differences in protein concentration.
Full wavelength (200-280 nm) CD spectra for each construct (FIG. 43) were used to calculate a wavelength of greatest change (222 or 224 nm) to create single wavelength CD vs. temperature plots (FIG. 30H-J and FIG. 31F-G). The single wavelength CD signal vs. temperature plot of Gal3C[T243C] used data acquired at 220 nm, which was the wavelength of greatest change for the unmodified protein. To calculate melting temperatures, the normalized data were fit to a Boltzmann sigmoidal function in Origin v8.5. For the data fitting, no parameters were fixed, and the ‘x’ parameter defined as the center of the data was interpreted as the melting temperature (Tm).

[2] = Equilibrium binding of lactose, intrinsic tryptophan fluorescence; conditions: ligand lactose; average ± standard deviation of 3 replicated experiments; PBS; read-out: Kd (equilibrium binding constant)
Experimental: (§1) Equilibrium binding data were recorded using a protocol adapted from a previous procedure from Restuccia, et al (38). Intrinsic tryptophan fluorescence was monitored using a Cary Eclipse™ Fluorescence Spectrophotometer (Agilent) operating with Cary Eclipse™ WinFLR software version 1.2 in ‘Scan Mode’. The instrument method parameters were as follows: excitation wavelength was 280 nm, the acquisition range was from 290 nm to 440 nm and the photomultiplier tube sensitivity was set to ‘medium’. Samples were prepared at final concentrations of 1 μM for Gal3C[T243C] or 5 μM Gal3C[T243C]-PEG in 800 ∥L, in PBS for each titration. Samples were pipetted into 0.7×0.7 cm quartz cuvettes with a micro stir bar. Each new experiment was first zeroed against PBS to remove the small background signal from the buffer. […]
(§2) The binding affinity and specificity of Gal3C[T243C]-PEG was compared with Gal3C[T243C] and Gal3C (see FIG. 1C, FIG. 9 and FIG. 10) via an inherent tryptophan fluorescence assay optimized to ensure equilibrium binding conditions. Binding of lactose or LacNac quenches the fluorescence of W181, located adjacent to the bound sugar in the crystal structure of Gal3C, thus permitting direct measurement of ligand Kd values.

[3] = Equilibrium binding of LacNac, intrinsic tryptophan fluorescence; conditions: ligand LacNac; average ± standard deviation of 3 replicated experiments; PBS; read-out: Kd (equilibrium binding constant)
Experimental: as §1
as §2, with “values. […]” for “values.”

breast cancer = breast cancer animal models; cited from earlier work

| Molecule | Tm1 ± StDev [1] [°C] | Tm1 ± StDev ([1]; listed as Gal3C[T243C,K139I]) [°C] | thermal unfolding behaviour / formation of unfolding intermediate [1] | Tm2 ± StDev [1] | Tm / Tm1 ([1]; values of Summary of Results, Tm for unconjugated protein, Tm1 for PEG conjugate) [°C] | Tm1 ± StDev ([1]; listed as Gal3C[T243C,K139I,K196I]) [°C] | Kd [2] [µM] | Kd [3] [µM] | fitted melting temperature (Tm) ([1]; FIG. 13, normalized CD intensity at 220 nm, Boltzmann sigmoidal fit) [°C] | tumor growth (breast cancer) |
| --- | --- | --- | --- | --- | --- | --- | --- | --- | --- | --- |
| Gal3C[T243C, K139I]: Gal3C[T243C] variant with lysine K139 replaced by isoleucine | 52.5 ± 0.4 | 52.5 | cooperative one step unfolding | ND^b (Higher than detectable by instrument (>90° C.)) | 52.7 |  |  |  |  |  |
| B1 | 60.5 ± 0.6 |  | cooperative one step unfolding | ND^b (Higher than detectable by instrument (>90° C.)) |  | 60.5 |  |  |  |  |
| B2 |  |  | significantly altered unfolding profile |  |  |  |  |  |  |  |
| B3 | 58.8 ± 0.6 |  |  |  |  |  | 529 ± 125 | 231 ± 32.3 | 58.4 | inhibiting tumor growth |
